Publication PMC7593955 (2020)

B1: ferrochelatase (FECH) (protein)
chain: GAKPQVQPQKRKPKTGILMLNMGGPETLGDVHDFLLRLFLDRDLMTLPIQNKLAPFIAKRRTPKIQEQYRRIGGGSPIKIWTSKQGEGMVKLLDELSPNTAPHKYYIGFRYVHPLTEEAIEEMERDGLERAIAFTQYPQYSCSTTGSSLNAIYRYYNQVGRKPTMKWSTIDRWPTHHLLIQCFADHILKELDHFPLEKRSEVVILFSAHSLPMSVVNRGDPYPQEVSATVQKVMERLEYCNPYRLVWQSKVGPMPWLGPQTDESIKGLCERGRKNILLVPIAFTSDHIETLYELDIEYSQVLAKECGVENIRRAESLNGNPLFSKALADLVHSHIQSNELCSKQLTLSCPLCVNPVCRETKSFFTSQQL

Key:
Assay in all cases: SPR
[1] = target: Adrenodoxin reductase (Homo sapiens) (UniProt P22570); conditions: cited from earlier work
[2] = target: Adrenodoxin reductase (Homo sapiens) (UniProt P22570); conditions: cited from earlier work; remark: listed apart in the source
ferrochelatase (FECH) = target: B1
[3] = target: T1, adrenodoxin reductase (ADR) (Homo sapiens, UniProt P22570)
T1 chain: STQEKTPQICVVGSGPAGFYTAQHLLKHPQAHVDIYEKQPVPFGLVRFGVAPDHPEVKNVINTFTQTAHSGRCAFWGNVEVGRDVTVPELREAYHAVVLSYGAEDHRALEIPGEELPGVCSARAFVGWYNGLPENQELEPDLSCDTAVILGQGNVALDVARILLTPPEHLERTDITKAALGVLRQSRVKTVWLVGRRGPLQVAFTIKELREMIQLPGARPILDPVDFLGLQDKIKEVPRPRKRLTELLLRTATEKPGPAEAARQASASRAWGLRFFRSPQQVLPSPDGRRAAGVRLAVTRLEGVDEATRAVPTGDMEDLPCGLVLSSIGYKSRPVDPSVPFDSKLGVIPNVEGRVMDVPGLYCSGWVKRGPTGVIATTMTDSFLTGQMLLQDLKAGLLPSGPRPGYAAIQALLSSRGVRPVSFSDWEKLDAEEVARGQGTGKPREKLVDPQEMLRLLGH

SPR = target: the molecule itself

| Molecule | Kd [1] | Kd [2] | Kd (ferrochelatase (FECH)) | Kd [3] | Kd (SPR) |
| --- | --- | --- | --- | --- | --- |
| Ferrochelatase (from UniProt P22830) | 13 µM | 2000 nM |  |  |  |
| ferrochelatase (FECH) (protein, 100 uM 5-nitroisatin) GAKPQVQPQKRKPKTGILMLNMGGPETLGDVHDFLLRLFLDRDLMTLPIQNKLAPFIAKRRTPKIQEQYRRIGGGSPIKIWTSKQGEGMVKLLDELSPNTAPHKYYIGFRYVHPLTEEAIEEMERDGLERAIAFTQYPQYSCSTTGSSLNAIYRYYNQVGRKPTMKWSTIDRWPTHHLLIQCFADHILKELDHFPLEKRSEVVILFSAHSLPMSVVNRGDPYPQEVSATVQKVMERLEYCNPYRLVWQSKVGPMPWLGPQTDESIKGLCERGRKNILLVPIAFTSDHIETLYELDIEYSQVLAKECGVENIRRAESLNGNPLFSKALADLVHSHIQSNELCSKQLTLSCPLCVNPVCRETKSFFTSQQL |  |  | 560 nM | 13.7 µM |  |
| ferrochelatase (FECH) (protein, NHS/EDC-treated immobilized FECH) GAKPQVQPQKRKPKTGILMLNMGGPETLGDVHDFLLRLFLDRDLMTLPIQNKLAPFIAKRRTPKIQEQYRRIGGGSPIKIWTSKQGEGMVKLLDELSPNTAPHKYYIGFRYVHPLTEEAIEEMERDGLERAIAFTQYPQYSCSTTGSSLNAIYRYYNQVGRKPTMKWSTIDRWPTHHLLIQCFADHILKELDHFPLEKRSEVVILFSAHSLPMSVVNRGDPYPQEVSATVQKVMERLEYCNPYRLVWQSKVGPMPWLGPQTDESIKGLCERGRKNILLVPIAFTSDHIETLYELDIEYSQVLAKECGVENIRRAESLNGNPLFSKALADLVHSHIQSNELCSKQLTLSCPLCVNPVCRETKSFFTSQQL |  |  | ~500 nM |  |  |
| ferrochelatase (FECH) (protein, 100 uM isatin) GAKPQVQPQKRKPKTGILMLNMGGPETLGDVHDFLLRLFLDRDLMTLPIQNKLAPFIAKRRTPKIQEQYRRIGGGSPIKIWTSKQGEGMVKLLDELSPNTAPHKYYIGFRYVHPLTEEAIEEMERDGLERAIAFTQYPQYSCSTTGSSLNAIYRYYNQVGRKPTMKWSTIDRWPTHHLLIQCFADHILKELDHFPLEKRSEVVILFSAHSLPMSVVNRGDPYPQEVSATVQKVMERLEYCNPYRLVWQSKVGPMPWLGPQTDESIKGLCERGRKNILLVPIAFTSDHIETLYELDIEYSQVLAKECGVENIRRAESLNGNPLFSKALADLVHSHIQSNELCSKQLTLSCPLCVNPVCRETKSFFTSQQL |  |  | 600 nM | 3.4 µM |  |
| ferrochelatase (FECH) (protein, 100 uM 5-fluoroisatin) GAKPQVQPQKRKPKTGILMLNMGGPETLGDVHDFLLRLFLDRDLMTLPIQNKLAPFIAKRRTPKIQEQYRRIGGGSPIKIWTSKQGEGMVKLLDELSPNTAPHKYYIGFRYVHPLTEEAIEEMERDGLERAIAFTQYPQYSCSTTGSSLNAIYRYYNQVGRKPTMKWSTIDRWPTHHLLIQCFADHILKELDHFPLEKRSEVVILFSAHSLPMSVVNRGDPYPQEVSATVQKVMERLEYCNPYRLVWQSKVGPMPWLGPQTDESIKGLCERGRKNILLVPIAFTSDHIETLYELDIEYSQVLAKECGVENIRRAESLNGNPLFSKALADLVHSHIQSNELCSKQLTLSCPLCVNPVCRETKSFFTSQQL |  |  | 610 nM | 13.8 µM |  |
| ferrochelatase (FECH) (protein, 100 uM 5-bromoisatin) GAKPQVQPQKRKPKTGILMLNMGGPETLGDVHDFLLRLFLDRDLMTLPIQNKLAPFIAKRRTPKIQEQYRRIGGGSPIKIWTSKQGEGMVKLLDELSPNTAPHKYYIGFRYVHPLTEEAIEEMERDGLERAIAFTQYPQYSCSTTGSSLNAIYRYYNQVGRKPTMKWSTIDRWPTHHLLIQCFADHILKELDHFPLEKRSEVVILFSAHSLPMSVVNRGDPYPQEVSATVQKVMERLEYCNPYRLVWQSKVGPMPWLGPQTDESIKGLCERGRKNILLVPIAFTSDHIETLYELDIEYSQVLAKECGVENIRRAESLNGNPLFSKALADLVHSHIQSNELCSKQLTLSCPLCVNPVCRETKSFFTSQQL |  |  | 530 nM | 15.5 µM |  |
| B1 |  |  |  | 15.2 µM | 550 nM |
| ferrochelatase (FECH) (protein, 100 uM 5,7-dichloroisatin) GAKPQVQPQKRKPKTGILMLNMGGPETLGDVHDFLLRLFLDRDLMTLPIQNKLAPFIAKRRTPKIQEQYRRIGGGSPIKIWTSKQGEGMVKLLDELSPNTAPHKYYIGFRYVHPLTEEAIEEMERDGLERAIAFTQYPQYSCSTTGSSLNAIYRYYNQVGRKPTMKWSTIDRWPTHHLLIQCFADHILKELDHFPLEKRSEVVILFSAHSLPMSVVNRGDPYPQEVSATVQKVMERLEYCNPYRLVWQSKVGPMPWLGPQTDESIKGLCERGRKNILLVPIAFTSDHIETLYELDIEYSQVLAKECGVENIRRAESLNGNPLFSKALADLVHSHIQSNELCSKQLTLSCPLCVNPVCRETKSFFTSQQL |  |  | 580 nM | 14.7 µM |  |
| ferrochelatase (FECH) (protein, 100 uM 5-iodoisatin) GAKPQVQPQKRKPKTGILMLNMGGPETLGDVHDFLLRLFLDRDLMTLPIQNKLAPFIAKRRTPKIQEQYRRIGGGSPIKIWTSKQGEGMVKLLDELSPNTAPHKYYIGFRYVHPLTEEAIEEMERDGLERAIAFTQYPQYSCSTTGSSLNAIYRYYNQVGRKPTMKWSTIDRWPTHHLLIQCFADHILKELDHFPLEKRSEVVILFSAHSLPMSVVNRGDPYPQEVSATVQKVMERLEYCNPYRLVWQSKVGPMPWLGPQTDESIKGLCERGRKNILLVPIAFTSDHIETLYELDIEYSQVLAKECGVENIRRAESLNGNPLFSKALADLVHSHIQSNELCSKQLTLSCPLCVNPVCRETKSFFTSQQL |  |  | 540 nM | 14.1 µM |  |
| ferrochelatase (FECH) (protein, 100 uM 5-methylisatin) GAKPQVQPQKRKPKTGILMLNMGGPETLGDVHDFLLRLFLDRDLMTLPIQNKLAPFIAKRRTPKIQEQYRRIGGGSPIKIWTSKQGEGMVKLLDELSPNTAPHKYYIGFRYVHPLTEEAIEEMERDGLERAIAFTQYPQYSCSTTGSSLNAIYRYYNQVGRKPTMKWSTIDRWPTHHLLIQCFADHILKELDHFPLEKRSEVVILFSAHSLPMSVVNRGDPYPQEVSATVQKVMERLEYCNPYRLVWQSKVGPMPWLGPQTDESIKGLCERGRKNILLVPIAFTSDHIETLYELDIEYSQVLAKECGVENIRRAESLNGNPLFSKALADLVHSHIQSNELCSKQLTLSCPLCVNPVCRETKSFFTSQQL |  |  | 570 nM | 14.3 µM |  |
